Measured values published in publication PMC11009657 (Proceedings of the National Academy of Sciences of the …, 2024).

Columns and labels:
[1] = target: tau extracted from Alzheimer brain samples (human (endogenous in Alzheimer brain)); test: sarkosyl extraction and Western blot
ThT fluorescence + TEM = target: the molecule itself; test: ThT fluorescence + TEM

Sequence of tau extracted from Alzheimer brain samples (natural protein) (P10636 2-758): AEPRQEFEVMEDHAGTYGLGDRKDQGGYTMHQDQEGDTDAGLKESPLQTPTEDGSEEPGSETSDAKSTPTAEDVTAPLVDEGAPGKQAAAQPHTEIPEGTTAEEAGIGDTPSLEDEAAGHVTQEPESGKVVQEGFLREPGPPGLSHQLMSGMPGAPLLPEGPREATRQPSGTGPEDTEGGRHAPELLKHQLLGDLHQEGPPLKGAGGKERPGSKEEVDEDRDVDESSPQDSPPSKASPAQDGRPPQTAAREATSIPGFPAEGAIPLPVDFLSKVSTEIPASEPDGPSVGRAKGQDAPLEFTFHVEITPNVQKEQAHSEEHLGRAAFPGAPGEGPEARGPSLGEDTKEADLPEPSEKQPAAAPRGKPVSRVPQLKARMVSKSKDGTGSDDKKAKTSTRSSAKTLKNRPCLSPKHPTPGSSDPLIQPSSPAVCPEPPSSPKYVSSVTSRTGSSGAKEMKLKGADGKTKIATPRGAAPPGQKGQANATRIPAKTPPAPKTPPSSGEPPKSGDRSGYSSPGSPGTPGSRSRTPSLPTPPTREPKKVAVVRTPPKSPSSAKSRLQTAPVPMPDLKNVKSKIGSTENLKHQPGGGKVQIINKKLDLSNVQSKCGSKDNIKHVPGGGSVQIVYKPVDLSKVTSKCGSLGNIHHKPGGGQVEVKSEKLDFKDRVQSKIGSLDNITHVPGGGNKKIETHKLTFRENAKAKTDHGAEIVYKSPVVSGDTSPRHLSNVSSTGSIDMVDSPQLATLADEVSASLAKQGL

For “tau extracted from Alzheimer brain samples (natural protein)”, the stoichiometry N [1] was 6.

DNIKHVPGGGSVQIVYKPV [jR2R3]: binds (ThT fluorescence + TEM).
